The target of this assay is ryanodine receptor 1 (RyR1) purified from rabbit skeletal muscle (rabbit) (UniProt P11716). The assay is described as follows: cryo-EM structure.

As usually defined, the stoichiometry N is the number of molecules, sites or subunits per partner or assembly.

Chain of ryanodine receptor 1 (RyR1) purified from rabbit skeletal muscle, P11716 1-5037 (P11716 whole entry): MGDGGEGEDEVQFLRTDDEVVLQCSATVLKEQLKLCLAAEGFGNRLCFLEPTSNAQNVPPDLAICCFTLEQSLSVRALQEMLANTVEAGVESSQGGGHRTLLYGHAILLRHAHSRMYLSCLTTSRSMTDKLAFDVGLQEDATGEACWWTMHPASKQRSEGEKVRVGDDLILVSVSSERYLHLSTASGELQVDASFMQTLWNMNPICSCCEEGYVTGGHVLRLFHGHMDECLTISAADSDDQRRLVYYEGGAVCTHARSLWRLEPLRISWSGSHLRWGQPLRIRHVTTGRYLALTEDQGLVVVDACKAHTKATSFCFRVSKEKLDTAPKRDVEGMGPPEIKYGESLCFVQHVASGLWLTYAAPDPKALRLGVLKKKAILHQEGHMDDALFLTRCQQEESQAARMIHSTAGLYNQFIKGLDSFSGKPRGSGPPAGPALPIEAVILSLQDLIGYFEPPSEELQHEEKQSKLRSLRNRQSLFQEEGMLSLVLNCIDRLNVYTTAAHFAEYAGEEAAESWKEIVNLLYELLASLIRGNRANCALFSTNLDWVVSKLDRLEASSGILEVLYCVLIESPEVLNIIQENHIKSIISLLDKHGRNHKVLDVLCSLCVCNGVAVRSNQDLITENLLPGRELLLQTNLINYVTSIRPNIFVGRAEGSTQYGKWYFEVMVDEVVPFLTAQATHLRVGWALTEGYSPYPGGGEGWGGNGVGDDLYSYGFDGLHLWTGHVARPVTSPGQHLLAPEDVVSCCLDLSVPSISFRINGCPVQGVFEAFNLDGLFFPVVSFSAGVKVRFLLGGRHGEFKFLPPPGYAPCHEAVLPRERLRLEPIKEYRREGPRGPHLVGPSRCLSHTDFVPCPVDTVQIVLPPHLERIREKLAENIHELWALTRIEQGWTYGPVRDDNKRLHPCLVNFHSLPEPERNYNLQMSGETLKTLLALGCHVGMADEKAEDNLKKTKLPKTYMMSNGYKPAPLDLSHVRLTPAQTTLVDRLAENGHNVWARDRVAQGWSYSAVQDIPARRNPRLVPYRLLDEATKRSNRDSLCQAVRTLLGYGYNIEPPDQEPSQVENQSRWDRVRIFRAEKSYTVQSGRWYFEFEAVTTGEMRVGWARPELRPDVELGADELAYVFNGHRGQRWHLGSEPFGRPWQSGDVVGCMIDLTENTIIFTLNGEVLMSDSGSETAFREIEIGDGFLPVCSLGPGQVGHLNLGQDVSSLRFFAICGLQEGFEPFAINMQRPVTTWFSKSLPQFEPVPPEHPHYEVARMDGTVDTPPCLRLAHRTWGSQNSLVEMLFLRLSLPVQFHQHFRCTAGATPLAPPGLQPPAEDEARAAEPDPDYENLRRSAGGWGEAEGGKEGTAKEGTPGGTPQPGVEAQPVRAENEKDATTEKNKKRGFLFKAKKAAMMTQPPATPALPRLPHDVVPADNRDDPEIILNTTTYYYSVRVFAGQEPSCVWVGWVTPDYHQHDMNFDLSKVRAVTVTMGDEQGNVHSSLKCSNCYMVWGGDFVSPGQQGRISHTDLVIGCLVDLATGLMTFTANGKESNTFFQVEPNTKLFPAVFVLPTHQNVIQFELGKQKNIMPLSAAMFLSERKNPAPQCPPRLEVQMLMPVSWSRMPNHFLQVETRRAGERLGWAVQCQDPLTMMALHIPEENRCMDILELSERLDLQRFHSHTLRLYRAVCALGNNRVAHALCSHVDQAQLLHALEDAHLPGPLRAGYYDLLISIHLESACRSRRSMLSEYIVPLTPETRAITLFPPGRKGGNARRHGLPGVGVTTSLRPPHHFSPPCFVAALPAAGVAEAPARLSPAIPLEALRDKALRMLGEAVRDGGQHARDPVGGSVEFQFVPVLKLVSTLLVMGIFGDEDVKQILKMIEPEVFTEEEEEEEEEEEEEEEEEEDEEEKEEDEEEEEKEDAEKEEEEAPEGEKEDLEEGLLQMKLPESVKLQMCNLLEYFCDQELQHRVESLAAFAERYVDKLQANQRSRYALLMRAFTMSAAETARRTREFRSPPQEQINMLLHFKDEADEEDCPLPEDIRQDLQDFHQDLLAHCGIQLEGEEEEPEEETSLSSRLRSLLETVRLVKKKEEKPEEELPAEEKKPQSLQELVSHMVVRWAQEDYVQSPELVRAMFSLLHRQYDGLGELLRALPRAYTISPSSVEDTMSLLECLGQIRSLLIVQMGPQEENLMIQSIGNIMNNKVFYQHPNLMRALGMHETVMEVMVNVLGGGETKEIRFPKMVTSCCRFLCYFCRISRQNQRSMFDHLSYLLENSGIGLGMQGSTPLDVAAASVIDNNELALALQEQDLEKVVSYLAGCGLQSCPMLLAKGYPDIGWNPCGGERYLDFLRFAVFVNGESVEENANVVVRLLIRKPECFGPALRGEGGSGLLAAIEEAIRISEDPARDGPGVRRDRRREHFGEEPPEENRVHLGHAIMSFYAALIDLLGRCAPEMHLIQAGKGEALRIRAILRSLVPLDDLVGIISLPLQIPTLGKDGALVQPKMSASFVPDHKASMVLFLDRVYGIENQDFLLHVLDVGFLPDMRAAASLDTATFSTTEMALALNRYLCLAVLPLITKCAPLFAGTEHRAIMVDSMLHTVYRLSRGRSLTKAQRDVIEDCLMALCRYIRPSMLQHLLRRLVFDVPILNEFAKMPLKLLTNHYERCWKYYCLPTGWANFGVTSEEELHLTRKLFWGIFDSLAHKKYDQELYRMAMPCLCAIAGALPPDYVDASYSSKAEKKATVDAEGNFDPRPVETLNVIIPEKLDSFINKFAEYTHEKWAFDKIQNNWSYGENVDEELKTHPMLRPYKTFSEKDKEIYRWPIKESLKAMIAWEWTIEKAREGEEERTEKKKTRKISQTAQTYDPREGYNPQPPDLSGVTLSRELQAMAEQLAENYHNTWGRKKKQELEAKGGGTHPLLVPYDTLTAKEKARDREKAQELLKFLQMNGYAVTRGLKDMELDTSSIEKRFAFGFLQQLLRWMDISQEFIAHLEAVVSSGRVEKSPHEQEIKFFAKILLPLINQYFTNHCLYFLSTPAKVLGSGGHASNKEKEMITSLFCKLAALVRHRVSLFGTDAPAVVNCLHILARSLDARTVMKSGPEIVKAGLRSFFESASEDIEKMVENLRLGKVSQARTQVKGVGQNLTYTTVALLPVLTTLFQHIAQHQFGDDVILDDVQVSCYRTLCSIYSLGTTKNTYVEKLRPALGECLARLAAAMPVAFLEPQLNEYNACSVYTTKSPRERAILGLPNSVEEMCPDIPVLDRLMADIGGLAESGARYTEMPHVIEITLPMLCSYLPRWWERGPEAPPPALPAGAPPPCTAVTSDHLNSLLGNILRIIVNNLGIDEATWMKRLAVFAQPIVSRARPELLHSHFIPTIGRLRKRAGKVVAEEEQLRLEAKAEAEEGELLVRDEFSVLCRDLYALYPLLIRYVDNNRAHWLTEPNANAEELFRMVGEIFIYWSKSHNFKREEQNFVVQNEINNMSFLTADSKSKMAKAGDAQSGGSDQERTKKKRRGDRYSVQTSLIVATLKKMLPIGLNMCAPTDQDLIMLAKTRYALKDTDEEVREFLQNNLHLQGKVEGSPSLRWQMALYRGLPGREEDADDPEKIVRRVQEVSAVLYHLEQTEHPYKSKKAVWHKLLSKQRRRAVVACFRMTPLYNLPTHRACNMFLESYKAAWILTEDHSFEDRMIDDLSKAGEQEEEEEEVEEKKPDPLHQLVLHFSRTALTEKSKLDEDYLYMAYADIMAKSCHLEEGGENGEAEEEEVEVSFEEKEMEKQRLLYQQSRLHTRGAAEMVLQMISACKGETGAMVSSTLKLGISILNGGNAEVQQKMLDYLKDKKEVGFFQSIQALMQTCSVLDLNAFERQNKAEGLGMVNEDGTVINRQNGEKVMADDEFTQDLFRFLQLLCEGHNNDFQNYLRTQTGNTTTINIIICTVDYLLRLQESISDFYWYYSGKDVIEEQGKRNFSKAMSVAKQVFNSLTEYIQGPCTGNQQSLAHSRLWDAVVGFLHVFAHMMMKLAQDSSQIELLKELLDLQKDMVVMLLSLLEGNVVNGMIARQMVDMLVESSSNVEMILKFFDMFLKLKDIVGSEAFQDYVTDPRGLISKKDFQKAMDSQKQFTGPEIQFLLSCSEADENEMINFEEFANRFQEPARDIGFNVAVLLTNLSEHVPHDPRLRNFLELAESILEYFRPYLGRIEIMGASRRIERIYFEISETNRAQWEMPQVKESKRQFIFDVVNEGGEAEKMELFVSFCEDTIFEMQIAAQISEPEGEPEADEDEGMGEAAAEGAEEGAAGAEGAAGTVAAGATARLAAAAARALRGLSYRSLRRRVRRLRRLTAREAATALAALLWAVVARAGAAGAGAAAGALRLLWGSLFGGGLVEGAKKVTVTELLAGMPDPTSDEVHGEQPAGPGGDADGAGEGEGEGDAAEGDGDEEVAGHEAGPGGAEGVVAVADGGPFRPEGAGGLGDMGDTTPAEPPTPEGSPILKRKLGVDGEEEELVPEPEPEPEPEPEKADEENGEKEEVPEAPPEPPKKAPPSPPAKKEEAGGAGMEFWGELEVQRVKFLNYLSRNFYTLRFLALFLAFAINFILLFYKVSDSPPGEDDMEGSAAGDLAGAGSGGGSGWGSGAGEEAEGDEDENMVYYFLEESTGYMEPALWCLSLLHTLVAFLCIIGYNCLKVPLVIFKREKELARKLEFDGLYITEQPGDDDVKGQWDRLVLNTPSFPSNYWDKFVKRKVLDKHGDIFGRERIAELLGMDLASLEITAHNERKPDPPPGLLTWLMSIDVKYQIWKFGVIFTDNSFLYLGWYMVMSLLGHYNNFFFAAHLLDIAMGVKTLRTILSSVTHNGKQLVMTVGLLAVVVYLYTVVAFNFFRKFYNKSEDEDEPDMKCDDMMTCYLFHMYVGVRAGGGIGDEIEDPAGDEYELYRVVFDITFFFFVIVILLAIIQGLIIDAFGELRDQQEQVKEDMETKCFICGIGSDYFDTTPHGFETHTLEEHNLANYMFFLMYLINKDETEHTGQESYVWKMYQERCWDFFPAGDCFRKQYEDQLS

On to “ryanodine receptor 1 (RyR1) purified from rabbit skeletal muscle, P11716 1-5037”, for which the stoichiometry N stood at 4.
